# From the supplement of paper PMC10065799, “High-throughput profiling of sequence recognition by tyrosine kinases and SH2 domains using bacterial peptide display” (eLife, 2023)
# Experiments:
# Grb2 SH2 = Grb2 SH2 (UniProt P62993); experiment: SH2 binding enrichment of the phosphorylated peptide, bacterial display (enrichment ratio); higher = better substrate or ligand; peptides without Tyr show the background
# c-Src SH2 = experiment: as above
# SHP2-C SH2 = experiment: as above
# FGFR3 = FGFR3 (UniProt P22607); experiment: phosphorylation enrichment, bacterial display (enrichment ratio); higher = better substrate or ligand; peptides without Tyr show the background
# Fer (mouse) = experiment: as above
# c-Src = experiment: as above
# Jak2 = Jak2 (UniProt O60674); experiment: as above
# Fyn = Fyn (UniProt P06241); experiment: as above
# AncSZ = experiment: as above
# Fes = Fes (UniProt P07332); experiment: as above
# EPHB2 = EPHB2 (UniProt P29323); experiment: as above
# Hck = Hck (UniProt P08631); experiment: as above
# EPHB1 = EPHB1 (UniProt P54762); experiment: as above
# c-Abl (mouse) = experiment: as above
# FGFR1 = FGFR1 (UniProt P11362); experiment: as above
# MERTK = MERTK (UniProt Q12866); experiment: as above
# 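Wherever SH2 binding enrichment of the phosphorylated peptide, bacterial display is given: peptide library displayed on the E. coli surface as eCPX fusions, selected cells deep-sequenced, score is each peptide's frequency after selection divided by its frequency in the input.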
# 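Wherever phosphorylation enrichment, bacterial display is given: 11-residue human phosphosite peptides and single-mutation variants displayed on the E. coli surface, counted by deep sequencing, each peptide's frequency after selection divided by its frequency in the unselected input library; frequency after pTyr selection over input frequency; kinase dosed for 20-30% of maximal phosphorylation in three min.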
# MERTK, sequence (Q12866 whole entry, looked up, the tested form may be a part): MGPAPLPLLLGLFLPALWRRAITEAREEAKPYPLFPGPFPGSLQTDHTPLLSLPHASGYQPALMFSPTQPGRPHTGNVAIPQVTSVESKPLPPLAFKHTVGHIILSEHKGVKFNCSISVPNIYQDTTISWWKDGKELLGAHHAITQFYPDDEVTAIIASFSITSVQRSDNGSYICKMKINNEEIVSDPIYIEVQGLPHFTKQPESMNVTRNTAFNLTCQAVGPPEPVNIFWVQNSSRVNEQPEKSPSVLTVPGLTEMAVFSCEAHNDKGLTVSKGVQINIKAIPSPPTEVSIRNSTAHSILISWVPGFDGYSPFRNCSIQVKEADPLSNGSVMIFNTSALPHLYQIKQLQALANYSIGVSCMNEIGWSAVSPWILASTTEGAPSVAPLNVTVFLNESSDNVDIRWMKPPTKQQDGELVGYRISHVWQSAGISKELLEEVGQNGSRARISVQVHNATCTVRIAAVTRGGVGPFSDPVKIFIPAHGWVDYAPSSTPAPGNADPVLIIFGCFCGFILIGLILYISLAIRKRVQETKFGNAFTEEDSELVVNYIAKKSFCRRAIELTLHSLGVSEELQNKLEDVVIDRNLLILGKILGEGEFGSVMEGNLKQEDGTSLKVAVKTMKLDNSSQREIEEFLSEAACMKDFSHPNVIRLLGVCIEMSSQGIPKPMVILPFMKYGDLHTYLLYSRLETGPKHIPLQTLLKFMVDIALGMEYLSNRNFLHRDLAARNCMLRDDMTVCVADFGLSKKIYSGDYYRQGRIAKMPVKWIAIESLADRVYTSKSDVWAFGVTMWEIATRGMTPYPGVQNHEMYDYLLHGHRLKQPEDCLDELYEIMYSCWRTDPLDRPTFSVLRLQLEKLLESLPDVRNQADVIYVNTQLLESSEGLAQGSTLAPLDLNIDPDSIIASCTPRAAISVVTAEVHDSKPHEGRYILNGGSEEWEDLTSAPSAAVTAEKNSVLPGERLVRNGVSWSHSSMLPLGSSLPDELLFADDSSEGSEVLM
# FGFR3, sequence (P22607 whole entry, looked up): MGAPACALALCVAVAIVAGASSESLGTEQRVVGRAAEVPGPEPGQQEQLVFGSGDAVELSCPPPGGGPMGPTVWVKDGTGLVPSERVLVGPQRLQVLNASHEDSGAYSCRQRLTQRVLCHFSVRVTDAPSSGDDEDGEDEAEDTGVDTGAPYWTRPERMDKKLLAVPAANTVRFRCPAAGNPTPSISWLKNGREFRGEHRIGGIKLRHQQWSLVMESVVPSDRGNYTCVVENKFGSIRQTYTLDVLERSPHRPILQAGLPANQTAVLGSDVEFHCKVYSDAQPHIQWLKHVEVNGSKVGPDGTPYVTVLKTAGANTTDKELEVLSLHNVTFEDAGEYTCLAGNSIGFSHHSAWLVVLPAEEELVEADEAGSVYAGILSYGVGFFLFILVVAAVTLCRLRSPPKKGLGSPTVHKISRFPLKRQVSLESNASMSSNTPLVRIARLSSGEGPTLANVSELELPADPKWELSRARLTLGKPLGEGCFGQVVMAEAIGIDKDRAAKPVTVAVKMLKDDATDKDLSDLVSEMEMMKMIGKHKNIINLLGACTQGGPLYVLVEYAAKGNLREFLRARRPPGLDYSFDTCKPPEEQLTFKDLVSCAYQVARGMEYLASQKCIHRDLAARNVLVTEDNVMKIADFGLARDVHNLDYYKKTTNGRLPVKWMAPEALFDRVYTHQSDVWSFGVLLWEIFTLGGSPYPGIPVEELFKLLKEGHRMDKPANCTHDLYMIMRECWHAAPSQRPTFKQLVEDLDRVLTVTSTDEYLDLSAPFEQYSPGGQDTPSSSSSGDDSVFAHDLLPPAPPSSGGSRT
# Hck, sequence (P08631 whole entry, looked up): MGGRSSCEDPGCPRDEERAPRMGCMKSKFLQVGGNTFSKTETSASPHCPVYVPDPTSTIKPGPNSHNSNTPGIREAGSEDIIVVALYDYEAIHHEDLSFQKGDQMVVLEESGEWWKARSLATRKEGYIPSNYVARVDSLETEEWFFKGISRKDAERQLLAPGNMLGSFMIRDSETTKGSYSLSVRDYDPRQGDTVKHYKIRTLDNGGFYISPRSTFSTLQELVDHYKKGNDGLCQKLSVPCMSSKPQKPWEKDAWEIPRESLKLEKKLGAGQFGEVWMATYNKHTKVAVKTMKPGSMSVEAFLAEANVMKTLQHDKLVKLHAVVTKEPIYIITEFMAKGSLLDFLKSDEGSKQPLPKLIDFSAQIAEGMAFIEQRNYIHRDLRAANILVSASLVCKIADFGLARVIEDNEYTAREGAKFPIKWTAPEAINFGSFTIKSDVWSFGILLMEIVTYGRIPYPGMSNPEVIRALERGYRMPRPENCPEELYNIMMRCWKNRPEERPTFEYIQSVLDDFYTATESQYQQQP
# Fyn, sequence (P06241 whole entry, looked up): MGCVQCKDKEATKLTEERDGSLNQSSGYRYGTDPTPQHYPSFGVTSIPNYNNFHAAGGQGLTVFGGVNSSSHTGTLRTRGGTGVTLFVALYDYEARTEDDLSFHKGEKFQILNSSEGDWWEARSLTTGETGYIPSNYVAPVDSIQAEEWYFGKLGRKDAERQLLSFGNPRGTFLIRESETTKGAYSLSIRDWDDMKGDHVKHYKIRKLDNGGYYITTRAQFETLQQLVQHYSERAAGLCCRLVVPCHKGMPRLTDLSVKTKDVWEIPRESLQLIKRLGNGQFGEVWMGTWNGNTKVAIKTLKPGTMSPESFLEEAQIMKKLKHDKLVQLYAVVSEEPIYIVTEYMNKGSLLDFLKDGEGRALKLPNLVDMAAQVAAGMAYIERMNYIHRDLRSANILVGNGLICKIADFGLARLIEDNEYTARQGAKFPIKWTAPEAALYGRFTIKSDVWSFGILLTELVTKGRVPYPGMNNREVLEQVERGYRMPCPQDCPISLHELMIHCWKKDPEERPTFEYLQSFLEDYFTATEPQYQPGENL
# Jak2, sequence (O60674 whole entry, looked up): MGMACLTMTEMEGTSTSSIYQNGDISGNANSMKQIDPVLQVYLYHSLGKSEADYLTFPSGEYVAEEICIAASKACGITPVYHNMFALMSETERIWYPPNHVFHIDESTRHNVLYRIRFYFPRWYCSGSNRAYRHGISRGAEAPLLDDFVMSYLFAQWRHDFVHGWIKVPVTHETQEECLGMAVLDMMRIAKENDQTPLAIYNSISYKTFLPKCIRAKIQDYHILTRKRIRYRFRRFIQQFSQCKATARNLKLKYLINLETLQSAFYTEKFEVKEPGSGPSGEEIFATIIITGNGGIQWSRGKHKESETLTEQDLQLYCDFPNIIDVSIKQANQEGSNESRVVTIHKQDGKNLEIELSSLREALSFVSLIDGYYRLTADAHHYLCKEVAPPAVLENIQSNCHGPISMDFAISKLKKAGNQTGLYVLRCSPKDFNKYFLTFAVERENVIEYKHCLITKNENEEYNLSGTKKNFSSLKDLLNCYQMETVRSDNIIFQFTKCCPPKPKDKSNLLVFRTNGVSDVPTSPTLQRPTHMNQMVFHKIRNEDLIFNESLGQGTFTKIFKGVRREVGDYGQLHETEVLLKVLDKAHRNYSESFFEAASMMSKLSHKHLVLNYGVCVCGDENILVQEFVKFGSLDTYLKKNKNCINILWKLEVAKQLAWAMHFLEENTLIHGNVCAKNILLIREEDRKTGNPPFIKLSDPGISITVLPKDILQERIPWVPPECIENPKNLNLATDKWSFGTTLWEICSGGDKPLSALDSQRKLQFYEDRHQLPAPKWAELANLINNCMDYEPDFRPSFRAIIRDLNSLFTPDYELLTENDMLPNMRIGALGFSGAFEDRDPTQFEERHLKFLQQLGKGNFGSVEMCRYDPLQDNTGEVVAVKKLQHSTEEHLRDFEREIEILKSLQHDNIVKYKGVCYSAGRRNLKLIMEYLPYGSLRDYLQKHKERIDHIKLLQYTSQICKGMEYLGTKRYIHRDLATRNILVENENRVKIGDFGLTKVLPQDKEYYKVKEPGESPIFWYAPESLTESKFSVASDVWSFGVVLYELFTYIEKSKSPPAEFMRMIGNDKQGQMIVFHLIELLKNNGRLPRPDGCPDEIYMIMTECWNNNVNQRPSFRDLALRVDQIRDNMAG
# FGFR1, sequence (P11362 whole entry, looked up): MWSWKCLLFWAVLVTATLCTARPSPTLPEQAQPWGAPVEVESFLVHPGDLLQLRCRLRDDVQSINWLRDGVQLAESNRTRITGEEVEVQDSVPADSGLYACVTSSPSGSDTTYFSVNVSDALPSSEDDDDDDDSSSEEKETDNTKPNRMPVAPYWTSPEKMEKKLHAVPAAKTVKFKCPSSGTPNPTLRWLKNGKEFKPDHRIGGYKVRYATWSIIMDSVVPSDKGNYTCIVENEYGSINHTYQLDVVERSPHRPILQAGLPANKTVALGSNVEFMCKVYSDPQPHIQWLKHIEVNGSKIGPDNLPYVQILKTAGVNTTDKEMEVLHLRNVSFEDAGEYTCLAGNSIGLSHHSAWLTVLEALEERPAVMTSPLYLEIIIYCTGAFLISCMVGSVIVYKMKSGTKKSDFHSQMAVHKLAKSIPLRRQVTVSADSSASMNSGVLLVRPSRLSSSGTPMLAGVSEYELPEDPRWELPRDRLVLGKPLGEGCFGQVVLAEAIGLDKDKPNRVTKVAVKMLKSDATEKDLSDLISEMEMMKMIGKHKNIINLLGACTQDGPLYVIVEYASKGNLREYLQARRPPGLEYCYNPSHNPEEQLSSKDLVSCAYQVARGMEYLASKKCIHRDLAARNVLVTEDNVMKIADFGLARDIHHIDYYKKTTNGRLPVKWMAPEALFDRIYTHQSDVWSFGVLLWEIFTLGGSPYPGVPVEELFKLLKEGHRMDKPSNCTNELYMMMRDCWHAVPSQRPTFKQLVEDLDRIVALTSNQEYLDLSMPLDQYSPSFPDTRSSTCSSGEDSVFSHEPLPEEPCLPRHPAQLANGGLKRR
Sequence,SH2 binding enrichment (Grb2 SH2),SH2 binding enrichment (c-Src SH2),SH2 binding enrichment (SHP2-C SH2),phosphorylation enrichment (FGFR3),phosphorylation enrichment (Fer (mouse)),phosphorylation enrichment (c-Src),phosphorylation enrichment (Jak2),phosphorylation enrichment (Fyn),phosphorylation enrichment (AncSZ),phosphorylation enrichment (Fes),phosphorylation enrichment (EPHB2),phosphorylation enrichment (Hck),phosphorylation enrichment (EPHB1),phosphorylation enrichment (c-Abl (mouse)),phosphorylation enrichment (FGFR1),phosphorylation enrichment (MERTK)
PSDPSYEDMRE [BMPR1A_Y467],0.832,1.12,0.324,1.27,1.26,0.534,1.45,0.848,2.49,1.59,0.495,1.28,0.901,0.831,0.758,0.504
PSPMPYACCQM [FOXL2_Y215_S217C],0.888,1.32,0.426,0.812,0.831,1.02,0.516,0.71,0.703,1.3,0.437,0.427,0.663,0.49,0.494,0.615
PSSNLYYRWLT [CNGA3_Y168],1.32,0.816,1.59,9.96,6.19,4.28,7.82,3.84,1.89,1.4,4.17,8.15,3.17,7.69,13.5,12.4
PSTYRYERGSR [INPPL1_Y663_P659S],0.814,0.495,0.492,0.588,0.474,0.546,0.475,0.721,0.718,0.59,0.511,0.661,0.663,0.446,0.641,0.561
PVFEVYPLLNC [GATA1_Y78_Q76E],0.945,0.551,0.73,1.9,0.533,0.758,1.48,0.418,1.64,1.86,0.756,0.597,0.742,1.03,2.54,0.559
PVKDPYVMFPQ [PLEKHG2_Y489],0.569,2.35,0.453,1.54,0.49,2.43,0.964,1.62,0.982,1.03,0.562,0.685,0.603,0.636,2.05,0.47

# Further lines, with some results ahead:
SH2 binding enrichment (Grb2 SH2),SH2 binding enrichment (c-Src SH2),SH2 binding enrichment (SHP2-C SH2),Sequence,phosphorylation enrichment (FGFR3),phosphorylation enrichment (Fer (mouse)),phosphorylation enrichment (c-Src),phosphorylation enrichment (Jak2),phosphorylation enrichment (Fyn),phosphorylation enrichment (AncSZ),phosphorylation enrichment (Fes),phosphorylation enrichment (EPHB2),phosphorylation enrichment (Hck),phosphorylation enrichment (EPHB1),phosphorylation enrichment (c-Abl (mouse)),phosphorylation enrichment (FGFR1),phosphorylation enrichment (MERTK)
0.909,0.413,0.839,PRQRRYVYYYS [PTEN_Y174_S170R],0.929,0.904,0.728,0.979,0.882,1.05,0.683,1.02,0.911,0.656,0.769,0.753,0.877
0.966,3.46,0.641,PSAELYSYALP [PDGFRB_Y716_N718Y],10,25.8,5.38,0.947,6.1,3.71,1.92,21.2,8.81,18,1.55,10.6,16.8
0.966,0.537,0.725,PVGVLYEVKVY [PTS_Y128_K129E],1.02,0.56,0.585,1.78,0.775,1.64,1.67,0.552,0.728,0.945,2.37,0.783,0.55
